Data on one molecule can be found in patent publication US20190218304A1, “POTENTIATING THE EFFECT OF ATP RELEASE” (INNATE PHARMA, priority 2017, published 2019).

For experiment [1], the system named is monocyte-derived DC (moDC). The experiment in a line: Activation of monocyte-derived dendritic cells in presence of ATP. It is filed as cell-based, human. As to conditions: ATP at 0.125 mM, 0.25 mM or 0.5 mM, 24 hours; I-394 shown at 10 μg/ml. On the procedure: While ATP has pro-inflammatory activity, CD39-mediated catabolism of ATP is believed to be able to impair dendritic cell (DC) activation, in turn altering a broader adaptive immune response against tumor antigen. In order to evaluate whether CD39 blockade using anti-CD39 antibodies could overcome CD39-mediated alteration of dendritic cell (DC) activation in the presence of ATP, we incubated monocyte-derived DC (moDC) with anti-CD39 antibodies in the presence of ATP.
Briefly, human monocytes were purified from human healthy blood and differentiated into MoDC in presence of GM-CSF and IL-4 during 6 days. […] LPS (Invivogen, 10 ng/ml) was used as positive control. To assess resulting effect of ATP-mediated DC activation on CD4 T cells activation, ATP-activated DC were washed and then incubated with allogenic CD4 T cells (ratio 1 MoDC/4 T cells) for a mixed lymphocytes reaction (MLR) during 5 days. T cells activation and proliferation were analyzed through CD25 expression and Cell Trace Violet dilution by flow cytometry (FIG. 8).

Experiment [2] concerns the target T1, Human CD39-L3, also known as NTPDase3 or ENTPD3 (Homo sapiens, UniProt O75355).
T1 sequence (O75355 1-529): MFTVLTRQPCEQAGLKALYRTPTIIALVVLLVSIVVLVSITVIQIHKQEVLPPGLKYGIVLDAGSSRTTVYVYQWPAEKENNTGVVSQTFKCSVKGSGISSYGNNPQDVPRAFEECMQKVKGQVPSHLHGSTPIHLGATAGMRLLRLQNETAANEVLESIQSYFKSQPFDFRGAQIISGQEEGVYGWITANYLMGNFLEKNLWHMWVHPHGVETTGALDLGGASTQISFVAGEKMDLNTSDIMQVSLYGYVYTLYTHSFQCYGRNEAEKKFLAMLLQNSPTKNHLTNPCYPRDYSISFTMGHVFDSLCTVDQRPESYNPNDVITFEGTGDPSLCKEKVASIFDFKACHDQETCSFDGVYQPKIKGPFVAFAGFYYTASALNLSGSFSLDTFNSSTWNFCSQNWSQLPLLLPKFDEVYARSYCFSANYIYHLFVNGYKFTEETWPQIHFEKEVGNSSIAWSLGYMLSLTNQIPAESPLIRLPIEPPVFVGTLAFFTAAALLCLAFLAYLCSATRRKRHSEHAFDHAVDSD
Nature of the experiment: ELISA titration on CD39-L3. Format: binding. As to conditions: coated recombinant protein, OD=450. On the procedure: Wells were washed in TBS Tween 20, and further saturated 2H at RT in TBS Blocking buffer. Dose range concentration of primary antibody was incubated in TBS blocking buffer for 2 h at RT. Wells were washed in TBS Tween 20. […] Optical density was measured on Enspire™ at OD=450.
In general terms: ELISA stands for enzyme-linked immunosorbent assay.

In experiment [3] the test system is MCA205 mouse tumor cells (sarcoma). The experiment in a line: In vivo combination treatment, MCA205 tumors in human CD39 KI mice. The note with it: second experimental series: oxaliplatin injected twice, one week apart, one day after I-394.
Method: 1×10^6 MCA205 mouse tumor cells (sarcoma) were subcutaneously engrafted in the right flank of mice genetically modified to express human CD39 (CD39KI mice). […] Tumors were measured twice a week with a caliper (L: length and w: width) and tumor volume was calculated with the formula (L×w2)/2. Mice were sacrificed when tumor volume was above 1800 mm^3 or when tumors were highly necrosed. The human CD39 KI mice were engrafted with MCA205 tumor cells at day 0.
In a first experimental series, mice were treated at day 5 post tumor cell engraftment with either control (1 group) PBS, or oxaliplatin chemotherapy (2 groups). In parallel, one group of mice treated with oxaliplatin was injected twice a week with anti-CD39 antibody, with the anti-CD39 antibody treatment starting just one day before oxaliplatin treatment (at day 4).
The target of experiment [4] is T2, human CD39-expressing CHO cells (Homo sapiens, UniProt P49961).
T2 construct: expressed in transfected cells; host or cells: CHO cells
T2 sequence (P49961 1-510): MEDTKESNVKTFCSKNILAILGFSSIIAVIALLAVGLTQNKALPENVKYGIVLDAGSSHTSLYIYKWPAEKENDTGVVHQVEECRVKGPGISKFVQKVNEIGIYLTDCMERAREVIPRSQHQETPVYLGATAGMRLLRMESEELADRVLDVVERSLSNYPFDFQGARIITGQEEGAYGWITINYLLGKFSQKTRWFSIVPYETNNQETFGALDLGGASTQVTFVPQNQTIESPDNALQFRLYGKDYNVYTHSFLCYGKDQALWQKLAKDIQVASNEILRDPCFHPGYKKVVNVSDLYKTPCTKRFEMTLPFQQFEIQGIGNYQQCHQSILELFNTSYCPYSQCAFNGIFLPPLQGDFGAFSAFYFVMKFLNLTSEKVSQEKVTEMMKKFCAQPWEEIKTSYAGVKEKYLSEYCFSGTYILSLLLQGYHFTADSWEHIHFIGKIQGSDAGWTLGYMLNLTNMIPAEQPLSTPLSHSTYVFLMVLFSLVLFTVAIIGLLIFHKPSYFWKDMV
The experiment in a line: Inhibition of the enzymatic activity of cellular CD39, CHO-huCD39 cells. It is filed as cell-based. The note with it: result in words. On the procedure:
(§1) The inhibition of the CD39 enzymatic activity in CD39-expressing cells by antibodies was evaluated using Cell Titer Glo™ (Promega, reference G7571) that allows assessment of ATP hydrolysis through use of a reagent that generates a luminescent signal proportional to the amount of ATP present. The assay was thus designed to permit assessment of the inhibition of ATP hydrolyzed by CD39 in the cell culture supernatant. Briefly, 5×10^4 Ramos human lymphoma cells, 5×10^3 human CD39-, cynomolgus CD39- and mouse CD39-expressing CHO cells, were incubated 1 hour at 37° C. with anti-CD39 antibodies from 30 μg/ml to 5×10^−4 μg/ml. Cells were then incubated with 20 μM ATP for 1 additional hour at 37° C. Plates were centrifuged for 2 min at 400 g and 50 μl cell supernatant are transferred in a luminescence microplate (white wells). 50 μl CellTiter-Glo® Reagent (CTG) was added to the supernatant and emitted light was quantified after a 5 min incubation in the dark using a Enspire™ luminometer. Anti-CD39 antibody efficacy was determined by comparing emitted light in presence of antibody with ATP alone (maximal light emission) and ATP together with cells (minimal light emission).

Another experiment has as its target T3, cell-membrane bound CD39 (Homo sapiens, UniProt P49961).
T3 sequence (P49961 1-510): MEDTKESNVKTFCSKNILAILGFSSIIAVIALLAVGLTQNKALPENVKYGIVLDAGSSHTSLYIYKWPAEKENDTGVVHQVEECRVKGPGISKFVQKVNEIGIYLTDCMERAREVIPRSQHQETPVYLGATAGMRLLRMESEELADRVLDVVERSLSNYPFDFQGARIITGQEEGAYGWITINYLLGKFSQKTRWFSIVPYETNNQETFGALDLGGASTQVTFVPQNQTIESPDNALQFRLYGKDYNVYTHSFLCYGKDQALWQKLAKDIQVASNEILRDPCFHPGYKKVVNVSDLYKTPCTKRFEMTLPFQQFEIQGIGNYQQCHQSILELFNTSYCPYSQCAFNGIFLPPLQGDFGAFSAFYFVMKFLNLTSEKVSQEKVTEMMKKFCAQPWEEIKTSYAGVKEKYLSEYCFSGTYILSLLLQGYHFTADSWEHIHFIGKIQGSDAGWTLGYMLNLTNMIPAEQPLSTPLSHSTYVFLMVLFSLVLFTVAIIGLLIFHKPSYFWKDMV
The experiment in a line: Inhibition of the enzymatic activity of cellular CD39 (cells not specified). It is filed as cell-based. As for the experimental part: as §1, with “emission). […]” for “emission).”

For experiment [5], the system named is cynomolgus CD39-expressing CHO cells. The experiment in a line: Inhibition of the enzymatic activity of cellular CD39, CHO-cyCD39 cells. It is filed as cell-based. As to conditions: result in words. As for the experimental part: as §1

Entries after “also recorded” stand apart in the source; their conditions may differ.

B1: I-394: anti-CD39 antibody, VH SEQ ID NO: 3, VL SEQ ID NO: 4; heavy and light chains SEQ ID NOS: 37 and 38 (antibody)
heavy: EVQLQQSGPELVKPGASVKMSCKASGYTFTDYNMHWVKQSHGRTLEWIGYIVPLNGGSTFNQKFKGRATLTVNTSSRTAYMELRSLTSEDSAAYYCARGGTRFAYWGQGTLVTVSAASTKGPSVFPLAPSSKSTSGGTAALGCLVKDYFPEPVTVSWNSGALTSGVHTFPAVLQSSGLYSLSSVVTVPSSSLGTQTYICNVNHKPSNTKVDKRVEPKSCDKTHTCPPCPAPEAEGAPSVFLFPPKPKDTLMISRTPEVTCVVVDVSHEDPEVKFNWYVDGVEVHNAKTKPREEQYNSTYRVVSVLTVLHQDWLNGKEYKCKVSNKALPSSIEKTISKAKGQPREPQVYTLPPSREEMTKNQVSLTCLVKGFYPSDIAVEWESNGQPENNYKTTPPVLDSDGSFFLYSKLTVDKSRWQQGNVFSCSVMHEALHNHYTQKSLSLSPGK
light: DIVLTQSPASLAVSLGQRATISCRASESVDNFGVSFMYWFQQKPGQPPNLLIYGASNQGSGVPARFRGSGSGTDFSLNIHPMEADDTAMYFCQQTKEVPYTFGGGTKLEIKRTVAAPSVFIFPPSDEQLKSGTASVVCLLNNFYPREAKVQWKVDNALQSGNSQESVTEQDSKDSTYSLSSTLTLSKADYEKHKVYACEVTHQGLSSPVTKSFNRGEC
modifications: Chimeric homo sapiens mus musculus
Turning to B1, in experiment [1], the “moDC activation as assessed by HLA-DR or CD83 expression” value is “permitted moDC activation; also recorded: lead to moDC activation”. In experiment [2], the “binding to CD39-L3 in ELISA” value was “not to any of the human isoforms”. Further, the “effect on tumor growth / tumor volume and mice survival” value in experiment [3] is reported as “only marginal effect”. In addition, the “blocking CD39 enzymatic activity in cells expressing human CD39 (CHO-huCD39)” value in experiment [4] is “blocks CD39 enzymatic activity; also recorded: highly potent at blocking CD39 enzymatic activity”. Also, the “potency and maximal inhibition of cellular CD39, comparison between antibodies (FIG. 2A)” value with cell-membrane bound CD39 (compared with BY40) is “greater potency and maximal inhibition of cellular CD39 compared to BY40; also recorded: greater potency at all concentrations as well as greater maximal inhibition of cellular CD39 compared to BY40”. Besides, in the experiment with cell-membrane bound CD39 (result in words), the “inhibition of cell-membrane bound (cellular) CD39 ATPase activity” value is on record as “inhibit cell-membrane bound CD39”. In addition, the “blocking CD39 enzymatic activity in cells expressing cynomolgus CD39 (CHO-cyCD39)” value in experiment [5] is “blocks CD39 enzymatic activity; also recorded: highly potent at blocking CD39 enzymatic activity”.
